# T1: rat VKORc1ΔAAR expressed in FSH231 (Rattus norvegicus, UniProt Q6TEK4, DEL31-33)
# T1 construct: expressed in transfected cells; host or cells: E. coli FSH231 (ΔdsbB, yidCT362I, hslVC160Y, malF-lacZ102 reporter), pTrc99a plasmid
# T1 sequence (Q6TEK4 with tags, fused parts or gaps DEL31-33): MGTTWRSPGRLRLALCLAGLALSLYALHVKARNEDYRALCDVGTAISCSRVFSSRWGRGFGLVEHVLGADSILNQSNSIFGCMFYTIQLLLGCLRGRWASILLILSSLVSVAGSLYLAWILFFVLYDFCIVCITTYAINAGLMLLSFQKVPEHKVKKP
# T2: VKORc1ΔAAR, G60D (Rattus norvegicus, UniProt Q6TEK4, C16A/C85A/C96A/DEL31-33/G60D)
# T2 construct: expressed in transfected cells; host or cells: E. coli FSH231 (ΔdsbB, yidCT362I, hslVC160Y), pTrc99a plasmid, co-transformed with pBAD43 (empty, or carrying DsbA or DsbAC33A)
# T2 sequence (Q6TEK4 with tags, fused parts or gaps C16A/DEL31-33/G60D/C85A/C96A): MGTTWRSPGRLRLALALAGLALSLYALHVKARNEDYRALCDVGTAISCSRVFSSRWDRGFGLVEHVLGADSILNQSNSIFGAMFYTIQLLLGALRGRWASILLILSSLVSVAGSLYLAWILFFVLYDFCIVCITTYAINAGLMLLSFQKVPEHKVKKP
# B1: FLAG-tagged E. coli DsbAC33A (pFH442: pFH441 C33A-FLAG) (enzyme, UniProt P0AEG4 20-208, looked up)
# chain: AQYEDGKQYTTLEKPVAGAPQVLEFFSFFCPHAYQFEEVLHISDNVKKKLPEGVKMTKYHVNFMGGDLGKDLTQAWAVAMALGVEDKVTVPLFEGVQKTQTIRSASDIRDVFINAGIKGEEYDAAWNSFVVKSLVAQQEKAAADVQLRGVPAMFVNGKYQLNPQGMDTSNMDVFVQQYADTVKYLSEKK
# notes: by common usage C33 of DsbA is counted on the mature (periplasmic) protein, not on the precursor; Expressed from pBAD43 in E. coli; also called C33A mutant of DsbA; not shown: FLAG tag
# How the values were obtained:
# [1] = molecular target: T1, rat VKORc1ΔAAR expressed in FSH231; assay: blue/white agar assay in 384 well plates using the β-Gal^dbs reporter (dose-dependent inhibition of VKORc1); assay type: cell-based; conditions: FIG. 4 Panel A; for dose-dependent inhibition of VKORc1: rat VKORc1ΔAAR expressed in E. coli FSH231 (ΔdsbB, yidCT362I, hsIVC160Y)
# [2] = molecular target: B1; assay: non-reducing SDS-PAGE of TCA-precipitated proteins of FSH231, immunoblot with anti-T7 or anti-FLAG; mixed disulfide
# [3] = molecular target: B1; assay: non-reducing SDS-PAGE immunoblot; mixed disulfide
# [4] = molecular target: B1; assay: non-reducing SDS-PAGE of TCA-precipitated proteins of FSH231, immunoblot with anti-T7 or anti-FLAG
# [5] = molecular target: the molecule itself; assay: immunoblot, FIG. 4 Panel C
# VKORc1ΔAAR, G60D = molecular target: T2, VKORc1ΔAAR, G60D; assay: motility assay, low agar motility plates of FSH231; assay type: cell-based; conditions: FSH231 co-expressing VKORc1ΔAAR, G60D and DsbAC33A, in the presence of DsbAwt; FIG. 4 Panel B
# Experimental: Bacterial motility was assayed by stabbing a colony into 0.3% minimal medium Agar plates containing M63 salts, 0.2% Glucose, IPTG, and carbenicillin. Motility was examined after two days of growth at 30 C. When using arabinose to induce expression from pBAD promoter, 0.5% glycerol was used instead of glucose in addition to 0.1% NZ to enhance motility.
# As expected, the function of VKORc1ΔAAR in disulfide bond formation was dependent on E. coli DsbA, the presumed substrate of the now functional VKORc1ΔAAR. To determine whether VKORc1ΔAAR interacts directly with DsbA in vivo, we used a C33A mutant of DsbA which forms a detectable stable complex with DsbB and asked whether a similar scenario occurs with VKORc1ΔAAR (23). We used the highly expressed VKORc1ΔAAR, G60D lacking all nonessential cysteines expressed in a ΔdsbB, yidCT362I, hsIVC160Y strain (FSH231). […] When TCA-precipitated proteins of FSH231 strain expressing both T7-tagged VKORc1ΔAAR, G60D and FLAG-tagged DsbAC33A are run on a non-reducing SDS-PAGE and probed by either anti-T7 or FLAG tags antibodies, a VKORc1-DsbA complex band around 40 kDa can be seen (FIG. 4., Panel C) that is DTT-sensitive. The complex formation is also observed when using VKORc1 lacking C51, but disappears in the absence of C46 or C132, unless the removal of C132 is accompanied by the removal of C51 (FIG. 4., Panel C). […]
molecule,measurement,setting,value
O=C1c2ccccc2C(=O)C1c1ccc(Br)cc1 [bromindione],dose-dependent inhibition of VKORc1,[1],inhibited
same,inhibitory effect compared with warfarin,[1]; rat VKORc1ΔAAR expressed in E. coli FSH231,stronger inhibitory effects than warfarin
CC(=O)CC(c1ccccc1)c1c(O)c2ccccc2oc1=O (stereo not drawn) [warfarin],dose-dependent inhibition of VKORc1,[1],inhibited
"T7-tagged rat VKORc1ΔAAR, G60D lacking all nonessential cysteines (pFH436: rat VKORc1 C16A ΔA31AR G60D C85A C96A-linker-T7 tag) (enzyme, Expressed in E. coli FSH231 (ΔdsbB, yidCT362I, hslVC160Y); not shown: C-terminal T7 tag) MGTTWRSPGRLRLALALAGLALSLYALHVKARNEDYRALCDVGTAISCSRVFSSRWDRGFGLVEHVLGADSILNQSNSIFGAMFYTIQLLLGALRGRWASILLILSSLVSVAGSLYLAWILFFVLYDFCIVCITTYAINAGLMLLSFQKVPEHKVKKPGTGGGSGGGSGS",binding result,[2],binds
"rat VKORc1 C16A C51A ΔA31AR G60D C85A C96A-linker-T7 tag (pFH438) (enzyme, also called VKORc1 lacking C51; not shown: C-terminal T7 tag) MGTTWRSPGRLRLALALAGLALSLYALHVKARNEDYRALCDVGTAISASRVFSSRWDRGFGLVEHVLGADSILNQSNSIFGAMFYTIQLLLGALRGRWASILLILSSLVSVAGSLYLAWILFFVLYDFCIVCITTYAINAGLMLLSFQKVPEHKVKKPGTGGGSGGGSGS",binding result,[3],binds
"rat VKORc1 C16A C51A ΔA31AR G60D C85A C96A C132A-linker-T7 tag (pFH440) (enzyme, also called VKORc1 with removal of C132 accompanied by the removal of C51; not shown: C-terminal T7 tag) MGTTWRSPGRLRLALALAGLALSLYALHVKARNEDYRALCDVGTAISASRVFSSRWDRGFGLVEHVLGADSILNQSNSIFGAMFYTIQLLLGALRGRWASILLILSSLVSVAGSLYLAWILFFVLYDFAIVCITTYAINAGLMLLSFQKVPEHKVKKPGTGGGSGGGSGS",binding result,[3],binds
"rat VKORc1 C16A ΔA31AR G60D C85A C96A C132A-linker-T7 tag (pFH439) (enzyme, also called VKORc1 in the absence of C132; not shown: C-terminal T7 tag) MGTTWRSPGRLRLALALAGLALSLYALHVKARNEDYRALCDVGTAISCSRVFSSRWDRGFGLVEHVLGADSILNQSNSIFGAMFYTIQLLLGALRGRWASILLILSSLVSVAGSLYLAWILFFVLYDFAIVCITTYAINAGLMLLSFQKVPEHKVKKPGTGGGSGGGSGS",binding result,[4],no binding
B1,binding result,[5],binds
"DsbAC33A: C33A mutant of E. coli DsbA, expressed from pBAD43; forms mixed disulfide with VKORc1 (protein, left off: small tags and cut ends) AQYEDGKQYTTLEKPVAGAPQVLEFFSFFCPHAYQFEEVLHISDNVKKKLPEGVKMTKYHVNFMGGDLGKDLTQAWAVAMALGVEDKVTVPLFEGVQKTQTIRSASDIRDVFINAGIKGEEYDAAWNSFVVKSLVAQQEKAAADVQLRGVPAMFVNGKYQLNPQGMDTSNMDVFVQQYADTVKYLSEKK",inhibition of VKORc1 function (motility),"VKORc1ΔAAR, G60D",inhibits the function of VKORc1
